Data: publication doi:10.1101/2021.03.31.438001

Molecular target: Pr17 (OAD22177.1), secreted protein of Candidatus Thiomargarita nelsonii (Candidatus Thiomargarita nelsonii)
Experiment: non-reducing SDS-PAGE

In the case of “Pr17 (OAD22177.1), secreted protein of Candidatus Thiomargarita nelsonii (natural protein)”, the stoichiometry N is reported as 2.
